Bridge positions count the residues as written; N and C are the ends. Ends that are not written are not given here.
Legend:
KLK7 [1] = target: T1, KLK7 (Homo sapiens, UniProt P49862); set-up: purchased R&D Systems 2624-SE; conditions: read-out: Ki against KLK7; cited from earlier work
Target sequence in this assay (P49862 30-253): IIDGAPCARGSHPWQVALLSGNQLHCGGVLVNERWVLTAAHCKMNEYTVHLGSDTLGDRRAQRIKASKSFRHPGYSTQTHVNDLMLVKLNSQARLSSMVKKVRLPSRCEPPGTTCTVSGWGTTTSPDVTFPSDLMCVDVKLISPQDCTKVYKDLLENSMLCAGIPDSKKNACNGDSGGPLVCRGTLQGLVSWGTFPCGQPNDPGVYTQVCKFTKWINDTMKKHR

[2] = test system: KLK5-mediated PAR2 activation; assay: PAR2-dependent intracellular calcium mobilization assay in N/TERT keratinocytes; type: cell-based; conditions: peptide 400 μM
Text: PAR2, a member of the G-protein-coupled receptor family expressed in keratinocytes, is a known downstream target of KLK5. KLK5 activates PAR2 by cleaving its extracellular N-terminal domain. This cleavage exposes a tethered ligand, which binds PAR2 intramolecularly to activate the receptor. , Activated PAR2 causes protein kinase C (PKC) and inositol 1,4,5-trisphosphate (IP3) activation, leading to calcium release from the endoplasmic reticulum, known as intracellular calcium mobilization. […] This delay is attributed to the time required for KLK5 to enzymatically cleave the extracellular N-terminal domain of PAR2, thereby exposing the tethered ligand sequence necessary to initiate receptor activation and downstream calcium signaling. […] This observation confirmed PAR2-dependent calcium mobilization and that rKLK5 could initiate PAR2 activation. The inhibition potential of lead 7 on KLK5 activity was then assessed by using this assay. rKLK5 was preincubated with lead 7 at concentrations of 2.5, 5, 20, or 40 μM for one hour before being applied to cultured keratinocytes, after which PAR2-dependent calcium mobilization was measured.
For Ki calculation, Km values for KLK5 and its substrate Boc-VPR-AMC were previously reported in the literature 8, 9, allowing the conversion from IC50 to Ki using the Cheng Prusoff equation10 Kᵢ = IC₅₀ / (1 + [S]/Kₘ) for single-site competitive binding.
Cell lines and tissue cultures
Keratinocytes isolated from the skin in a patient with genetic skin disease Netherton Syndrome (NS19) and in healthy donors (C42, C46, P8) were used in the study. […]
The immortalized keratinocyte cell line (N/TERT)13, 14 were used for the assay. […] The cells were counted, and 100 µL of the suspension, at a density of 600,000 cells/mL, was seeded into each well of a 96 -well microplate. […]
calcium signalling. […] Fluorescence excitation was set at 485 nm, and emission was recorded at 520 nm using SpectraMax® i3x plate reader. […]

KLK5 = target: T2, KLK5 (Homo sapiens, UniProt Q9Y337); conditions: prior findings, reference not given; read-out: Ki against KLK5; cited from earlier work
T2 construct: purchased R&D Systems 1108-SE
T2 sequence (Q9Y337 23-293): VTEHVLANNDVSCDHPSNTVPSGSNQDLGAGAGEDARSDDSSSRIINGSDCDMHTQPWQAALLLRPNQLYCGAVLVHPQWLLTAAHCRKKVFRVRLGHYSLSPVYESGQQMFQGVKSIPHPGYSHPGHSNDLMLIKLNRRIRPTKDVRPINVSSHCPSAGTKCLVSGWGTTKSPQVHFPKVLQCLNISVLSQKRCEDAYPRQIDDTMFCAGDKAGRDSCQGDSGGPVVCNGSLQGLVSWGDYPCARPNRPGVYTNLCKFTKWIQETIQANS

KLK7 [3] = target: T1, KLK7; assay: enzyme inhibition assay (fluorogenic substrate); selectivity: inhibition of KLK7, KLK8 or KLK14 activity by the peptide, n = 3; substrates and conditions in the Supporting Information
[4] = target: T3, Kallikrein-related peptidase 5 (KLK5) (UniProt Q9Y337 23-293); assay: enzyme inhibition assay (fluorogenic substrate); inhibition of KLK5 activity by the peptide, fluorogenic substrate Boc-VPR-AMC, n = 3; conditions in the Supporting Information; conditions: both partners purified
[5] = target: T3, Kallikrein-related peptidase 5 (KLK5); assay: as above; conditions: both partners purified; remark: listed apart in the source
KLK8 = target: T4, KLK8 (UniProt O60259 33-260); assay: enzyme inhibition assay (fluorogenic substrate); selectivity: inhibition of KLK7, KLK8 or KLK14 activity by the peptide, n = 3; substrates and conditions in the Supporting Information; conditions: both partners purified
T4 construct: Kallikrein 8 (KLK8); construct and source are in the Supporting Information
T4 sequence (looked up): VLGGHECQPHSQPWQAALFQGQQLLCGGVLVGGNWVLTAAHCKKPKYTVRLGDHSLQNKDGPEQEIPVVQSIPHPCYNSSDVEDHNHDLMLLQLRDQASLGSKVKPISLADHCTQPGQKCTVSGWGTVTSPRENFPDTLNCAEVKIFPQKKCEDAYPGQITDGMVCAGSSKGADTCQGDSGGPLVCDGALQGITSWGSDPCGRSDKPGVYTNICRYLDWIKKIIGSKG

KLK14 = target: T5, KLK14 (UniProt Q9P0G3); assay: as above
T5 sequence (Q9P0G3 41-267, species assumed, looked up): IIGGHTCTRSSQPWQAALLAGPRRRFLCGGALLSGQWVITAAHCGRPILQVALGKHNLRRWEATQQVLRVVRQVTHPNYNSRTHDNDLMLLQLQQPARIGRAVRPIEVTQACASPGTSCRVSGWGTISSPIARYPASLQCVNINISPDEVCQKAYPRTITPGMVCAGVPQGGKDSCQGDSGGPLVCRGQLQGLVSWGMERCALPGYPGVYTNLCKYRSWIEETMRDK

For “α1-antichymotrypsin [reference compound]”, the Ki (KLK7 [1]) is listed as 500 nM.

In the case of LRGILS-NH2 [R-AP, reference compound], the “calcium mobilization on stimulation of keratinocytes” value [2] is reported as “did not induce calcium mobilization”.

With SLIGRL-NH2 [AP, reference compound] the “calcium mobilization on stimulation of keratinocytes” value [2] was “PAR2-dependent calcium mobilization was observed”.

B1: LEKTI Domain 6: domain 6 of the endogenous serine protease inhibitor LEKTI (protein)
chain: ESGKATSYAELCNEYRKLVRNGKLACTRENDPIQGPDGKVHGNTCSMCEVFFQAEEEEKKKKEGESRN
modifications: Kazal-type disulfides
For B1, the Ki (KLK5) is given as 83.3 nM.

B2: SFTI analogue 8 (peptide)
peptide: cyclo(GFCHRSYPPECWPN)
modifications: disulfide 3-11 (inferred)
notes: SFTI scaffold grafted with residues of a LEKTI or LEKTI-like domain, glutamic acid at position 10; also called compound 8; source: synthetic peptide (hydrazide peptide, cyclised via native chemical ligation, oxidised, RP-HPLC purified)
With B2 the IC50 (KLK7 [3]) was > 1000 nM, the Ki [4] was 8 nM and the IC50 [5] was 8.6 ± 2 nM. The IC50 (KLK8) was > 1000 nM.

B3: LEKTI-grafted SFTI analogue, lead 7 (peptide)
peptide: cyclo(GFCTRSNPPECWPN)
modifications: disulfide 3-11 (inferred)
notes: SFTI scaffold grafted with residues of a LEKTI domain, glutamic acid at position 10; source: synthetic peptide (hydrazide peptide, cyclised via native chemical ligation, oxidised, RP-HPLC purified)
With B3 the IC50 (KLK14) was > 1000 nM, the IC50 (KLK7 [3]) was > 1000 nM and the Ki [4] was 11 nM. For the same molecule, the IC50 [5] was 14 ± 4 nM and the IC50 (KLK8) was > 1000 nM.

B4: LEKTI Domain 5: domain 5 of the endogenous serine protease inhibitor LEKTI (protein)
chain: REIVKLCSQYQNQAKNGILFCTRENDPIRGPDGKMHGNLCSMCQAYFQAENEEKKKAEARAR
modifications: Kazal-type disulfides
In the case of B4, the Ki (KLK5) is listed as 32.8 nM.
